Data on two molecules can be found in US20060281899A1, “Mutants of biotin binding protein” (priority 2002, published 2006).

For orientation: Kd means the concentration at which binding is half-saturated. What is called ΔTm is the shift of the melting midpoint relative to a reference. In general, Tm refers to the temperature at which the thermal transition is half complete.

The nature of data set [1]: Differential scanning calorimetry of avidin and AVR4/5 forms. Type of data set: physicochemical. The settings on record: 50 mM sodium phosphate pH 7.0, 100 mM NaCl. As for the experimental part: The thermodynamics of the heat-induced unfolding of the proteins were studied using DSC. The transition midpoint of heat-induced denaturation (Tm) of the avidin and different AVR4/5 forms was studied using a Nano II differential scanning calorimeter (Calorimetric Sciences Corporation, Provo, Utah, USA). The reference cell was filled with buffer whereas the sample cell was filled with proteins dissolved in 50 mM sodium phosphate buffer, pH 7.0 containing 100 mM NaCl. Avidin and AVR4/5(C124S) were also analyzed in 50 mM Na-acetate pH 4.0 containing 100 mM NaCl. Furthermore, AVR4/5 was analyzed in the presence of 2-mercaptoethanol (0.4% v/v). The samples (1.6-9.6 μM) were analyzed both in the absence and presence of a three fold molar excess of biotin/subunit. All samples were degassed before being loaded into the DSC. The thermograms were recorded as a function of temperature; between 25 and 130° C. at a rate of 55.6° C./h (Gonzalez, M., Argarana, C. E. & Fidelio, G. D. (1999) Biomol. Eng. 16, 67-72; Nordlund, H. R., Laitinen, O. H., Uotila, S. T., Nyholm, T., Hytönen, V. P., Slotte, J. P. & Kulomaa, M. S. (2003) J. Biol. Chem. 278, 2479-2483). Data was analyzed using Microcal Origin 6.0 and Cpcalc 2.1 (Applied Thermodynamics, Hunt Valley, Md.). The change in heat capacity upon unfolding (ΔCp) was measured for avidin and AVR4/5(C124S) using DSC data from measurements in pH 4.0 and 7.0. ΔCp was then obtained from the slope of ΔH vs. Tm (Liu, Y. & Sturtevant, J. M. (1996) Biochemistry 35, 3059-3062).

The nature of data set [2]: IAsys reversibility of binding to biotin, AVR4/5 forms. The settings on record: biotin cuvette. As for the experimental part: The biotin-binding characteristics of the different avidins were studied using an IAsys optical biosensor at 20° C. […] H., Hytönen, V. P., Ahlroth, M. K., Pentikäinen, O. T., Gallagher, C., Nordlund, H. R., Ovod, V., Marttila, A. T., Porkka, E., Heino, S., Johnson, M. S., Airenne, K. J. & Kulomaa, M. S. (2002) Biochem. J. 363, 609-617).

A short description of data set [3]: IAsys optical biosensor, AVR4/5 forms binding to 2-iminobiotin surface. To be noted: for Kd: 20° C. As for the experimental part: The biotin-binding characteristics of the different avidins were studied using an IAsys optical biosensor at 20° C. The reversibility of binding and binding affinities to the 2-iminobiotin surface in 50 mM borate buffer (pH 9.5, 1 M NaCl) were measured as previously reported (Laitinen, O. H., Hytönen, V. P., Ahlroth, M. K., Pentikäinen, O. T., Gallagher, C., Nordlund, H. R., Ovod, V., Marttila, A. T., Porkka, E., Heino, S., Johnson, M. S., Airenne, K. J. & Kulomaa, M. S. (2002) Biochem. J. 363, 609-617).
Briefly, The 2-iminobiotin ligand was immobilized onto the carboxymethyldextran surface of a cuvette using N-hydroxysuccinimide activation. Binding of various concentrations of avidin or avidin mutants onto 2-iminobiotinylated surface were measured in a 50 mM borate buffer (pH 9.5) containing 1 M NaCl at 20° C. The iminobiotin cuvettes were regenerated with 20 mM HCl. The kinetic rate constants for association (kass) and dissociation (kdiss) were calculated using the Fast Fit program package (Affinity Sensors). The obtained rate constants were used to calculate Kd(rel) according to Kd=kdiss/kass. Equilibrium data obtained from measurements with different protein concentrations were used to calculate the dissociation constant Kd(eq).

Data set [4] is described as follows: Differential scanning calorimetry of the avidin mutants. It counts as physicochemical. The settings on record: for Tm: DSC, 100 mM Na-phosphate buffer pH 7.4. The procedure:
In order to study the thermal stability of the purified avidin mutants, they were subjected to analysis by differential scanning calorimetry. A Nano II differential scanning calorimeter (Calorimetric Science Corporation, Provo, Utah) was used. […] The reference cell was filled with the same buffer that the sample proteins were dissolved in (100 mM Na-phosphate buffer pH 7.4). The thermograms were recorded as a function of temperature, between 25 and 130° C. at a temperature scan rate of 55.6° C./h. The baselines were subtracted and the transition midpoints (Tm) of the samples were calculated using proprietary software provided by the instrument manufacturer.

The nature of data set [5]: IAsys optical biosensor, affinity of avidin and avidin mutants towards 2-iminobiotin. It counts as binding. As for the experimental part:
(§1) Reversibility of biotin binding was measured for avidin and the mutants with an IAsys optical biosensor (Laitinen, O. H. et al., FEBS Lett 461 (1999), 52-8). Protein samples were allowed to bind to a biotin-aminosilane cuvette in PBS containing 1 M NaCl. After the equilibrium was reached, biotin-containing buffer was added and the dissociation of the proteins was monitored. The affinities of the proteins towards 2-iminobiotin were determined with an IAsys optical biosensor (Marttila, A. T. et al. FEBS Lett 441 (1998), 313-7). Biotin-binding activity of the mutants Avd-ci and Avd-ccci after heat treatment was studied with a microtiter plate assay. Protein samples, 5 μg/ml concentration in PBS, were heated for various time periods at 99.9° C. and then chilled on ice. The samples were transferred to a Nunc Maxisorp-plate and incubated at 37° C. for 2 h. The wells were washed three times with PBS-Tween (0.05% v/v). After that the wells were blocked with PBS containing 1% BSA at 37° C. for 30 minutes and washed again with PBS-Tween. Next, biotinylated alkaline phosphatase (Sigma) in PBS, 1% BSA was added and incubated at 37° C. for one hour. Once again, the wells were washed with PBS-Tween and the PNPP substrate in DEA buffer (1 mg/ml) was applied to the wells. The absorbances at 405 nm were measured after incubation for 45 minutes.

For data set [6] the following is noted: cited from earlier work.
The conditions of data set [7]: 2-iminobiotin surface; from Nordlund 2003; read-out: Kd detected from the equilibrium response data; cited from earlier work.
In data set [8] the test system is biotinylated alkaline phosphatase. The experiment in a line: Microtiter plate assay, biotin-binding activity after heat treatment at 99.9° C. Type of data set: physicochemical. To be noted: 99.9° C. for various time periods. As for the experimental part:
as §1, with “After that the wells were blocked with PBS containing 1% BSA at 37° C. for 30 minutes and washed again with PBS-Tween. Next, biotinylated alkaline phosphatase (Sigma) in PBS, 1% BSA was added and incubated at 37° C. for one hour. Once again, the wells were washed with PBS-Tween and the PNPP substrate in DEA buffer (1 mg/ml) was applied to the wells.” left out
Biotin-binding activity of the proteins after heat treatment was studied with a microtiter plate assay (Nordlund, H. R., Laitinen, O. H., Uotila, S. T., Nyholm, T., Hytönen, V. P., Slotte, J. P. & Kulomaa, M. S. (2003) J. Biol. Chem. 278, 2479-2483). […] The absorbencies at 405 nm were measured after incubation for 45 minutes.

The mark [9] stands for this setting: previously published (Nordlund 2003; Gonzalez 1999).

Where two headings read alike, the source gives them in different places.

B1: AVR4/5(N43E): AVR4/5 mutant, residue 43 changed to glutamate to avoid glycosylation (protein, UniProt P56734 25-150, looked up, variant N43E)
Avidin-related protein 4/5: ARKCSLTGKWTNNLGSIMTIRAVNSRGEFTGTYLTAVADNPGEITLSPLLGIQHKRASQPTFGFTVHWNFSESTTVFTGQCFIDRNGKEVLKTMWLLRSSVNDISYDWKATRVGYNNFTRLCTVEE
Consider B1, for which, in data set [1], the “DSC Tm(−biotin)” value came out at 104.9 ± 0.3 °C. Besides, the “Reversibility of binding to biotin” value in data set [2] turned out to be 3 ± 2%. The kass result in data set [3] is given as “(1.3 ± 0.3) × 10^4 M^−1s^−1”. Moreover, the kdiss entry in data set [3] is on record as “(1.8 ± 0.8) × 10^−3 s^−1”. In addition, the Kd in data set [3] (50 mM borate pH 9.5, 1 M NaCl, read-out: Kd detected from the equilibrium response data) was determined as 110 nM; in data set [3] (pH 9.5, 1 M NaCl, read-out: Kd detected directly from the binding curves), 140 nM.

B2: Avd-ccci: Avidin mutant D86C, I106C, I117C with six intermonomeric disulphide bridges (protein, UniProt P02701 25-152, looked up, variant D86C I106C I117C)
Avidin: ARKCSLTGKWTNDLGSNMTIGAVNSRGEFTGTYITAVTATSNEIKESPLHGTQNTINKRTQPTFGFTVNWKFSESTTVFTGQCFICRNGKEVLKTMWLLRSSVNDCGDDWKATRVGCNIFTRLRTQKE
For the molecule B2, the ΔTm is 3.8 °C in data set [4] (+ biotin, difference in Tm compared to wt avidin + biotin); 9.2 °C in data set [4] (without biotin, difference in Tm compared to wt avidin); 27.3 °C in data set [6] (change in Tm upon biotin addition, previously published values). The Tm was determined as 122.0 ± 0.1 °C in data set [4] (+ biotin (biotin:avidin molar ratio 3:1)) and 94.7 ± 0.5 °C in data set [4] (without biotin). In addition, the Kd in data set [5] and in data set [7] was 290 nM throughout. In addition, the “DSC Tm (+biotin)” value in data set [6] (setting [9]) was 122.0 ± 0.1 °C. Moreover, in data set [6] (setting [9]), the “DSC Tm(−biotin)” value is 94.7 ± 0.5 °C. In addition, in data set [8], the “biotin-binding activity after heat treatment” value is “remained active, in the sense of binding biotin, longer than the wild-type avidin”.
